The results in this text go back to PMC2877719 (2010).

No end group written: not given here. Bounds are passed on as bounds.

The assay addresses calmodulin (Homo sapiens, UniProt P0DP23). The experiment in a line: FCS.
Broadly, the Kd is a measure of binding affinity in units of concentration. Low readings indicate higher affinity, high ones lower affinity. RRLFQRFRQQK (also: fluorescent label, unspecified) [hEAG1 BD-C2] had a Kd of 223 nM.

Take LRKRIVFRKI (also: fluorescent label, unspecified): the affinity, expressed as Kd, was 327 nM.

Take LRKRIVFRKI (also: GST fusion): the equilibrium dissociation constant (Kd) was more than 5000 nM.

FARLTRALTSSRGVL (also: fluorescent label, unspecified) [hEAG1 BD-N] had a Kd of 45 nM.
